Measured values from US20140120109A1 (Regeneron, published 2014).
Changes are numbered by the printed parent chain. Numbers in names are those of the source.

T1: cynomolgus monkey TL1A, soluble, E. coli-expressed, residues 72-251 of SEQ ID NO:248 (cynomolgus monkey (Macaca fascicularis), UniProt O95150 72-251 (human entry))
T1 construct: with or without N-terminal Met; also called MfTL1A (E. Coli)
T1 chain: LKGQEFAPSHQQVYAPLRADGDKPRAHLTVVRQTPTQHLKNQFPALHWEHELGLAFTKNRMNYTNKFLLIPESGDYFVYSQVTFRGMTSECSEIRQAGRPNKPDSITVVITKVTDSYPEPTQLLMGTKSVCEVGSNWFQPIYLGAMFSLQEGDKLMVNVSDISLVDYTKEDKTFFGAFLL

T2: Fhm, hTL1A(Q167R), soluble, E. coli-expressed, residues 72-251 of SEQ ID NO:246 (human, UniProt O95150 72-251)
T2 construct: with or without N-terminal Met
T2 chain: T1 chain with L39F, V78I, Q96R

T3: mouse TL1A, soluble, CHO-expressed, residues 76-252 of SEQ ID NO:250 with N-terminal His6-tag (mouse, UniProt Q5UBV8 76-252)
T3 construct: also called mTL1A; mTL1A (CHO)
T3 sequence: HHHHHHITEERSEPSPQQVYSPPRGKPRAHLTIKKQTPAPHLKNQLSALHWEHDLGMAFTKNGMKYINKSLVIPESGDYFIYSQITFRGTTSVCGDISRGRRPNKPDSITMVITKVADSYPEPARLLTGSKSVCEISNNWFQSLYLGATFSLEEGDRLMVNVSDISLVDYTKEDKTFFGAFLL

T4: rat TL1A, soluble, CHO-expressed, residues 76-252 of SEQ ID NO:258 with N-terminal His6-tag (rat, UniProt Q8K3Y7 76-252)
T4 construct: also called rTL1A; rTL1A (CHO)
T4 sequence: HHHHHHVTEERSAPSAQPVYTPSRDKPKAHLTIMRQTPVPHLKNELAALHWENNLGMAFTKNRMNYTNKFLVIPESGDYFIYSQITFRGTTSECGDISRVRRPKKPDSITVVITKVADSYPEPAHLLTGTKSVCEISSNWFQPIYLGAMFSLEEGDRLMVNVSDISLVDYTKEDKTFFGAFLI

T5: cynomolgus monkey TL1A, soluble, CHO-expressed, residues 72-251 of SEQ ID NO:248 with N-terminal His6-tag (cynomolgus monkey (Macaca fascicularis), UniProt O95150 72-251 (human entry))
T5 construct: also called MfTL1A; MfTL1A (CHO)
T5 chain: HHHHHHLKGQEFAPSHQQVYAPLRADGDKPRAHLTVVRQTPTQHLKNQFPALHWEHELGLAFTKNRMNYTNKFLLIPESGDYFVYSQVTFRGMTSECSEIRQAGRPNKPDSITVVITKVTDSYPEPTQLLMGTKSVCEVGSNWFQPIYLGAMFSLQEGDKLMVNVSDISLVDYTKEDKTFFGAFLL

T6: human TL1A, soluble, CHO-expressed, residues 72-251 of SEQ ID NO:244 with N-terminal His6-tag (human, UniProt O95150 72-251)
T6 construct: also called hTL1A; hTL1A (CHO)
T6 sequence: T5 chain with L45F, V84I

T7: mouse TL1A, soluble, E. coli-expressed, residues 76-252 of SEQ ID NO:250 (mouse, UniProt Q5UBV8 76-252)
T7 construct: with or without N-terminal Met; also called mTL1A (E. Coli)
T7 sequence: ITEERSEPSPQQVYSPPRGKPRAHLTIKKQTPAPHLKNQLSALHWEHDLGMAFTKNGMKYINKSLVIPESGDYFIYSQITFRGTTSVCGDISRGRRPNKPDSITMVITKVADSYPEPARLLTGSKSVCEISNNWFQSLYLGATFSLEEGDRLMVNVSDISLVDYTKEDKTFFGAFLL

B1: H4H1738P (antibody, human IgG4 S228P, V domains shown)
VH: EVQLVESGGALVKPGGSLRLSCAVSGFTFINDWMNWVRQAPGKGLEWVGRIKSTTDGGTTDDAAPVKGRFTISRDDSKNTLYLQMNSLKTEDTAVYYCTRDRNRQRNYFYDGMDVWGQGTTVTVSA
VL: DIVMTQSPVSLPVTPGEPASISCRSSQRLLHNNGNNYLDWYLQKPGQSPQLLIYLGSNRASGVPDRFSGSGSGTDFTLKVSRVEAEDVGVYYCMQALQTPYTFGQGTKLEIK
B2: H4H1752P (antibody, human IgG4 S228P, V domains shown)
VH: EVQLVESGGGLVQPGGSLRLSCSASGFTFSKYVMTWVRQAPGKGLEWVSAIGPTGRTTEYADSVQGRFTISRDNSMNTVFLHLNSLTAEDTAEYYCAKMFDWNYDVYFDSWGQGTLVTVSS
VL: DIQMTQSPSILSASVGDRVTITCRTSQSISNWLAWYQQKPGKAPNLLIYKASSLESGVPSRFSGSGSGTEFTLTISSLQPDDFATYYCQQYYRYWTFGQGTKVEIK
B3: H4H1725P (antibody, human IgG4 S228P, V domains shown)
VH: QVQLVQSGAEVKKPGASVKVSCKASGYTFTGYYMHWVRQAPGQGLEWMGWIKPKSGGTNYVQKFQGRVTMTRDTSINTAYMELNNLKSDDTAVYYCATGGSQDASDFWGQGTMVTVSS
VL: DIQMTQSPSSVSASVGGRVTITCRASQDISIWLAWYQQKPGKAPNLLIYAASSLQSGVPSRFSGSGSGTDFTLTISSLQPEDFATYYCQQADSFPLTFGGGTKVEIK
B4: H4H1750P (antibody, human IgG4 S228P, V domains shown)
VH: QVQLVESGGGVVQPGRSLRLSCVASGFTFSNYGMHWVRQAPGKGLEWVAVISYDGNNDLYSDSVKGRFTISRDNAKNALSLQMTSLRAEDTAVYYCARDSTMTPYYYHGIDVWGQGTTVTVSA
VL: DIQMTQSPSSLSASVGDRVTITCRASQDIRNDLGWYQQKPGKAPKRLIYAASSLQSGVPSRFSGSGSGTDFTLTISSLQPEDFATYYCLQHNSYPPTFGQGTKVEIK
B5: H4H1704N (antibody, human IgG4 S228P, V domains shown)
VH: EVQLVESGGGLVQPGGSLRLSCAVSGFTFSSYWMSWVRQAPGKGLEWVANIKEDGSEKNYVDSVKGRFTLSSDNAKNSLYLQMNSLRAEDTAVYYCAREDYDSYYKYGMDVWGQGTAVIVSS
VL: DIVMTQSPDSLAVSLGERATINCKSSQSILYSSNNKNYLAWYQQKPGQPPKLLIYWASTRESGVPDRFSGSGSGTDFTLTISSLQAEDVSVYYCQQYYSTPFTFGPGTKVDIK
notes: human IgG4(S108P) form of H2M1704N
B6: H4H1804N (antibody, human IgG4 S228P, V domains shown)
VH: QVQLHQWGAGLLKPSETLSLTCAVSGVSFSDYHWAWIRQSPGKGLEWIGDINHRGRTNYNPSLKSRVTISLDTSGNPFSLKLTSVTAADTAVYYCARDFPNWVFDSWGQGILVTVSS
VL: EIVLSQSPGTLSLSPGERATLSCRASQSVSSSFLAWYQQYPGQAPRLLIYGASRRATGIPDRFRGSGSGTDFTLTISRLEPEDFAVYYCQQYGSSPLTFGGGTKVENK
notes: human IgG4(S108P) form of H2M1804N
B7: H4H1817N (antibody, human IgG4 S228P, V domains shown)
VH: QVQLQQWGAGLLKPSETLSLTCAVSGGSFSDYFWTWIRQPPGKGLEWIGEISHSGRTNYNPSLKSRVTISVDTSMSQFSLKMTSVTAADSAVYYCARDYPNWVFDYWGQGTLVTVSS
VL: EIELTQSPGTLSLSPGEGATLSCRASQSVFNSYLAWYQQKPGQAPRLLIYGASRRATGIPDRFSGSGSGTDFTLTISRLEPGDFAVYFCQQYGNSPLTFGGGTKVEIK
notes: human IgG4(S108P) form of H2M1817N
B8: H4H1681N (antibody, human IgG4 S228P, V domains shown)
VH: EVQLLESGGGLVQPGKSLRLSCAVSGFTFSTYGMNWVRQAPGKGLEWVSSISGTGRTTYHADSVQGRFTVSRDNSKNILYLQMNSLRADDTAVYFCTKERGDYYYGVFDYWGQGTLVTVSS
VL: DIQMTQSPSTLSASVGDRVTITCRASQTISSWLAWYQQTPEKAPKLLIYAASNLQSGVPSRFSGSGSGTEFTLTISSLQPDDFATYYCQQYHRSWTFGQGTKVEIT
B9: H4H1805N (antibody, human IgG4 S228P, V domains shown)
VH: QVQLQQWGAGLLKPSETLSLTCAVYGGSFTGFYWSWIRQPPGKGLEWIGEINHRGNTNYNPSLKSRVTMSVDTSKNQFSLNMISVTAADTAMYFCASPFYDFWSGSDYWGQGTLVTVSS
VL: DIMLTQTPLTSPVTLGQPASISCKSSQSLVHSDGNTYLSWLQQRPGQPPRLLFYKISNRFSGVPDRFSGSGAGTDFTLKISRVEAEDVGVYYCMQATQFPLTFGGGTKVEIK
notes: human IgG4(S108P) form of H2M1805N

Target: T1, cynomolgus monkey TL1A, soluble, E. …
Experiment: SPR 25C, mAb captured
Procedure, shortened: (§1)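 Biacore T100 SPR with captured mAb and soluble TL1A/Fhm analyte; ka and kd fitted to a 1:1 model assuming monomeric TL1A. KD = kd/ka; t1/2 (min) = ln2/(60·kd).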

Kd | t1/2 | Binder
1.36 nM | 18 min | B1
0.274 nM | 122 min | B2
0.0637 nM | 292 min | B3
52.7 nM | 4 min | B4

Target: T2, Fhm, hTL1A(Q167R), soluble, E. …
Experiment: SPR 25C, mAb captured
Procedure, shortened: as §1

Kd | t1/2 | binding result | Binder
1.02 nM | 19 min | – | B1
– | – | no binding (tested: up to 100 nM) | B2
0.0289 nM | 447 min | – | B3
0.204 nM | 623 min | – | B4

Target: T1, cynomolgus monkey TL1A, soluble, E. …
Experiment: SPR 37C, mAb captured
Procedure, shortened: as §1

Kd | t1/2 | Binder
4.2 nM | 4 min | B1
1.32 nM | 29 min | B2
0.0622 nM | 174 min | B3
456 nM | 1 min | B4

Each binder was assayed against T3, mouse TL1A, soluble, CHO-expressed, … (assay: SPR 37C, mAb captured).
Procedure, shortened: as §1

binding result | Kd | t1/2 | Binder
no binding (tested: up to 100 nM) | – | – | B1
– | 1.3 nM | 27 min | B5
no binding (tested: up to 100 nM) | – | – | B2
no binding (tested: up to 100 nM) | – | – | B4
no binding (tested: up to 100 nM) | – | – | B6

Target: T2, Fhm, hTL1A(Q167R), soluble, E. …
Experiment: SPR 37C, mAb captured
Procedure, shortened: as §1

Kd | t1/2 | Binder
3.1 nM | 4 min | B1
0.0436 nM | 194 min | B3
0.244 nM | 335 min | B4

Each binder was assayed against T4, rat TL1A, soluble, CHO-expressed, … (assay: SPR 37C, mAb captured).
Procedure, shortened: as §1

Kd | t1/2 | Binder
1.6 nM | 26 min | B7
0.046 nM | 133 min | B5
0.411 nM | 15 min | B3
0.127 nM | 88 min | B6

Target: T5, cynomolgus monkey TL1A, soluble, …
Experiment: SPR 37C, mAb captured
Procedure, shortened: as §1

Kd | t1/2 | Binder
0.226 nM | 32 min | B8
0.352 nM | 68 min | B9
0.465 nM | 60 min | B1
0.0256 nM | 1150 min | B7
0.223 nM | 91 min | B2
0.0177 nM | 888 min | B3
0.078 nM | 167 min | B6

These binders were tested against T6, human TL1A, soluble, CHO-expressed, … (assay: SPR 37C, mAb captured).
Procedure, shortened: as §1

Kd | t1/2 | Binder
0.254 nM | 31 min | B8
0.299 nM | 80 min | B9
0.571 nM | 51 min | B1
0.0278 nM | 1100 min | B7
0.225 nM | 96 min | B2
0.0239 nM | 758 min | B3
0.0458 nM | 286 min | B6

What follows are binders tested against T7, mouse TL1A, soluble, E. coli-expressed, … (assay: SPR 25C, steady state).
Procedure, shortened: as §1

binding result | Kd | Binder
no binding (tested: up to 100 nM) | – | B1
no binding (tested: up to 100 nM) | – | B2
– | 62 nM | B3
no binding (tested: up to 100 nM) | – | B4
